From US20090215991A1

biological target: extracellular region of human V158 FcγRIIIa with C-terminal 6xHis-tag and GST-tag (human) (UniProt P08637); assay: SPR
Sequence (P08637 17-208 F176V): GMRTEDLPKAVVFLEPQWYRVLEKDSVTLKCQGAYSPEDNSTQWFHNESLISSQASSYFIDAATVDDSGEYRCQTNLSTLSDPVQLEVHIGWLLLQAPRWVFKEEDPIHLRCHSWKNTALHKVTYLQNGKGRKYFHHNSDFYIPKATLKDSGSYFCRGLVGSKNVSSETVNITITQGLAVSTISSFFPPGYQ

Row | Fold WT [fold] | Substance
1 | 1.38 | E272R alemtuzumab (antibody)
2 | 2.31 | E283H alemtuzumab (antibody)
3 | 12.8 | S304T alemtuzumab (antibody)
4 | 1.51 | V284E alemtuzumab (antibody)

biological target: FcγRIIIa on human PBMCs expressing heterozygous V158/F158 FcγRIIIa (human) (UniProt P08637); assay: cell-based or functional assay
Sequence (P08637 17-254): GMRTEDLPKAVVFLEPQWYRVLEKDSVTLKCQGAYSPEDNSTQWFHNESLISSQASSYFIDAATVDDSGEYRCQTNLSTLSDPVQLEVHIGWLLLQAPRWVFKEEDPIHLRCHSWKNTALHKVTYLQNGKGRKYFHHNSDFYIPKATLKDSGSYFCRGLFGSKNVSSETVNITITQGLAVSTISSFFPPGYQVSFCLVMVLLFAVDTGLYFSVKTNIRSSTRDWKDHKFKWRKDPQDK

Row | ADCC log(EC50), DoHH-2 target cells | Substance
5 | 0.49 log(ng/ml) | S239D/I332E alemtuzumab (antibody)
6 | 0.6 log(ng/ml) | V264I/I332E alemtuzumab (antibody)
